Assay results as given in patent publication US20090214428A1 (HENRY M JACKSON FOUNDATION FOR THE ADVANCEMENT OF MILITARY …, published 2009).

Biological target: T1, myc-tagged NiV G (full-length, from lysates of infected cells) (Nipah virus, UniProt Q9IH62 1-602)
T1 sequence: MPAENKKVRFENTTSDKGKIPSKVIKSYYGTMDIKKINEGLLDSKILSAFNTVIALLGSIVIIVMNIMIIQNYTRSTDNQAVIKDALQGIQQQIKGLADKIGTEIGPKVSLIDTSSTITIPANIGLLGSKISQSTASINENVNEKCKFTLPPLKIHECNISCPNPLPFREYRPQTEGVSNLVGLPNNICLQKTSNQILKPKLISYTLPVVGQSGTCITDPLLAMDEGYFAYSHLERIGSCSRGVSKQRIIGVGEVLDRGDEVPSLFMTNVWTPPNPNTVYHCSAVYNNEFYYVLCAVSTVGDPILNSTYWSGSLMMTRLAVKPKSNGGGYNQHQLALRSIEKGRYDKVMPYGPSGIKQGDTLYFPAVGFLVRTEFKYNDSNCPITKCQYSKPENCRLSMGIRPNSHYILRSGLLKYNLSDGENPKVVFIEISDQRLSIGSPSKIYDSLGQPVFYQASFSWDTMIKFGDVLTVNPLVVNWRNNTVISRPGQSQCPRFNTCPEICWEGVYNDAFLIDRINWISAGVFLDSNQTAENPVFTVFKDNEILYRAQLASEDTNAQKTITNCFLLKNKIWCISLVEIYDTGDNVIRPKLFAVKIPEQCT
Assay: immunoprecipitation of 35S-labelled myc-tagged G from cell lysate

B1: Fab m102 (Fab, V domains shown)
VH: EVQLVQSGAEVKKPGSSVKVSCKSSGGTFSNYAINWVRQAPGQGLEWMGGIIPILGIANYAQKFQGRVTITTDESTSTAYMELSSLRSEDTAVYYCARGWGREQLAPHPSQYYYYYYGMDVWGQGTTVTVSS
VL: EIVLTQSPGTLSLSPGERATLSCRASQSITNGRLAWYQQKPGQAPRLLIYGVSSRASGIPERFSGSGSGTDFTLTISRLEPEDFAVYYCQQYGSSVLFGPGTKVDIKR
B1: binds.
